From publication doi:10.1101/2023.01.27.525886 (bioRxiv, 2023)

T1: Vtc3-TAPm (S. cerevisiae, UniProt Q02725 1-835)
T1 sequence: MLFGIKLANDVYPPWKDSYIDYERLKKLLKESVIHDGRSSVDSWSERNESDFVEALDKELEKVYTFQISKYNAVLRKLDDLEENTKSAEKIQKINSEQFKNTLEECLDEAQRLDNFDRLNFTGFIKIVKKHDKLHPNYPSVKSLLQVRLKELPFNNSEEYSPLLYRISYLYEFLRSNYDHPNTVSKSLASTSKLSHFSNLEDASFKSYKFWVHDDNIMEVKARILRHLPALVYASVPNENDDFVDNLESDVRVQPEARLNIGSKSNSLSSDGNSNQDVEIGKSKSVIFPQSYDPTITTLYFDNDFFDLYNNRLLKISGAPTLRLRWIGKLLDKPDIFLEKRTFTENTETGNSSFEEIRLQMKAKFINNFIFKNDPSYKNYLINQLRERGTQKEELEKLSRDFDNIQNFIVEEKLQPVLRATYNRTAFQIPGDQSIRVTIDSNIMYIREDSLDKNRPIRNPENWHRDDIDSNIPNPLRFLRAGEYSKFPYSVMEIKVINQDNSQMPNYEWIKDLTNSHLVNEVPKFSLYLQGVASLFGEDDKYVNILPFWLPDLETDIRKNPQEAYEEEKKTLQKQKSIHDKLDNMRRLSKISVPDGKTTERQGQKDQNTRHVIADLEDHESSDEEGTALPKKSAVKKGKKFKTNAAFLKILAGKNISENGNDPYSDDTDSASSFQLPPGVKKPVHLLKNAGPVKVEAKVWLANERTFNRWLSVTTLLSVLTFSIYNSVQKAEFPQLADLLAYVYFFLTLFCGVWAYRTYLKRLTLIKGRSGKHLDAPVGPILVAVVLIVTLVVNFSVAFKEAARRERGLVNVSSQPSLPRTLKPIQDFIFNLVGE

B1: Vtc4 (natural protein)
chain: MKFGEHLSKSLIRQYSYYYISYDDLKTELEDNLSKNNGQWTQELETDFLESLEIELDKVYTFCKVKHSEVFRRVKEVQEQVQHTVRLLDSNNPPTQLDFEILEEELSDIIADVHDLAKFSRLNYTGFQKIIKKHDKKTGFILKPVFQVRLDSKPFFKENYDELVVKISQLYDIARTSGRPIKGDSSAGGKQQNFVRQTTKYWVHPDNITELKLIILKHLPVLVFNTNKEFEREDSAITSIYFDNENLDLYYGRLRKDEGAEAHRLRWYGGMSTDTIFVERKTHREDWTGEKSVKARFALKERHVNDFLKGKYTVDQVFAKMRKEGKKPMNEIENLEALASEIQYVMLKKKLRPVVRSFYNRTAFQLPGDARVRISLDTELTMVREDNFDGVDRTHKNWRRTDIGVDWPFKQLDDKDICRFPYAVLEVKLQTQLGQEPPEWVRELVGSHLVEPVPKFSKFIHGVATLLNDKVDSIPFWLPQMDVDIRKPPLPTNIEITRPGRSDNEDNDFDEDDEDDAALVAAMTNAPGNSLDIEESVGYGATSAPTSNTNHVVESANAAYYQRKIRNAENPISKKYYEIVAFFDHYFNGDQISKIPKGTTFDTQIRAPPGKTICVPVRVEPKVYFATERTYLSWLSISILLGGVSTTLLTYGSPTAMIGSIGFFITSLAVLIRTVMVYAKRVVNIRLKRAVDYEDKIGPGMVSVFLILSILFSFFCNLVAK

What was measured:
Vtc4 = target: B1; assay: cryo-EM structure
cryo-EM structure = target: the molecule itself; assay: cryo-EM structure
Vtc3-TAPm [1] = target: T1, Vtc3-TAPm; assay: affinity co-purification of the endogenous complex
Vtc3-TAPm [2] = target: T1, Vtc3-TAPm; assay: cryo-EM structure

Row | stoichiometry N (Vtc4) [Vtc1 per Vtc4] | binding result (Vtc3-TAPm [1]) | stoichiometry N (Vtc3-TAPm [2]) [Vtc4 per Vtc3] | Binder | binding result (cryo-EM structure)
1 | 3 | binds |  | Vtc1 (natural protein) MSSAPLLQRTPGKKIALPTRVEPKVFFANERTFLSWLNFTVMLGGLGVGLLNFGDKIGRVSAGLFTFVAMGTMIYALVTYHWRAAAIRRRGSGPYDDRLGPTLLCFFLLVAVIINFILRLKYNDANTKL | binds
2 |  |  | 1 | B1 | 
